In paper PMC4383033, “Architecture of the ring formed by the tubulin homologue FtsZ in bacterial cell division” (eLife, 2014):

B1: Thermotoga maritima FtsZ (natural protein, UniProt O08398 1-351, looked up)
chain: MGFDLDVEKKKENRNIPQANNLKIKVIGVGGAGNNAINRMIEIGIHGVEFVAVNTDLQVLEASNADVKIQIGENITRGLGAGGRPEIGEQAALESEEKIREVLQDTHMVFITAGFGGGTGTGASPVIAKIAKEMGILTVAIVTTPFYFEGPERLKKAIEGLKKLRKHVDTLIKISNNKLMEELPRDVKIKDAFLKADETLHQGVKGISELITKRGYINLDFADIESVMKDAGAAILGIGVGKGEHRAREAAKKAMESKLIEHPVENASSIVFNITAPSNIRMEEVHEAAMIIRQNSSEDADVKFGLIFDDEVPDDEIRVIFIATRFPDEDKILFPEGDIPAIYRYGLEGLL
notes: FtsZ of Thermotoga maritima; 'completely unmodified'; the C-terminal tail was verified by ESMS to be intact after purification; It says 'completely unmodified' with intact C-terminal tails; also called TmFtsZ; source: purified as described previously (Szwedziak et al., 2012)
B2: Thermotoga maritima FtsA (natural protein, UniProt Q9WZU0 1-419, looked up)
chain: MIDLSKTVFYTSIDIGSRYIKGLVLGKRDQEWEALAFSSVKSRGLDEGEIKDAIAFKESVNTLLKELEEQLQKSLRSDFVISFSSVSFEREDTVIERDFGEEKRSITLDILSEMQSEALEKLKENGKTPLHIFSKRYLLDDERIVFNPLDMKASKIAIEYTSIVVPLKVYEMFYNFLQDTVKSPFQLKSSLVSTAEGVLTTPEKDRGVVVVNLGYNFTGLIAYKNGVPIKISYVPVGMKHVIKDVSAVLDTSFEESERLIITHGNAVYNDLKEEEIQYRGLDGNTIKTTTAKKLSVIIHARLREIMSKSKKFFREVEAKIVEEGEIGIPGGVVLTGGGAKIPRINELATEVFKSPVRTGCYANSDRPSIINADEVANDPSFAAAFGNVFAVSENPYEETPVKSENPLKKIFRLFKELME
notes: FtsA of Thermotoga maritima; 'completely unmodified'; the C-terminal tail (amphipathic helix) was verified by ESMS to be intact after purification; It says 'completely unmodified' with intact C-terminal tails; also called TmFtsA; source: purified as described previously (Szwedziak et al., 2012)

How the values were obtained:
Thermotoga maritima FtsA = molecular target: B2; test: transmission electron cryomicroscopy of liposomes; proteins on the outside of liposomes of E. coli total lipid extract; TmFtsA 20 uM, TmFtsZ 60 uM or both; 50 mM Tris/HCl, 100 mM NaCl, 1 mM EDTA, 1 mM NaN3, pH 7.5; room temperature; settings: both partners purified
[1] = molecular target: the molecule itself; test: electron cryomicroscopy and cryotomography of liposomes; TmFtsZ (30 uM) and TmFtsA (10 uM) encapsulated in liposomes of E. coli total lipid extract by dilution of CHAPS; 0.5 mM MgGTP, MgGMPCPP or no nucleotide; TEN100 7.5 buffer; room temperature

Question: Does B1 bind (Thermotoga maritima FtsA)?
Answer: binds

Question: Does B1 bind [1]?
Answer: binds

Question: Does B2 bind [1]?
Answer: binds
